Results reported in US20200223906A1 (Adimab, published 2020).

B1: ADI-18888 (antibody, V domains shown)
VH: QVQLVESGGGVVQPGRSLRLSCVASGFSFSMHGMHWVRQAPGKGLEWVTAIWYDGSNKYYADSVKGRFTISRDNSRNTLYLQMNSLRAEDTAVYYCARDHASTPYYMDVWGKGTTVTVSS
VL: ETTLTQSPGTLSLSPGESATLSCRTSQRISSTYLAWYRQKPGQAPRLLMYGASSRATGIPDRFSGSGSGTDFTLTISSLEPEDFALYYCQQYGSFPWTFGQGTKLEIK
notes: full-length IgG from yeast; also called Antibody Number 243; Ab # 243
B2: ADI-18906 (antibody, V domains shown)
VH: EVQLVESGGGVVQPGRSLRLSCVASGFSFSMHGMHWVRQAPGKGLEWVTAIWYDGSNKYYADSVKGRFTISRDNSRNTLYLQMNSLRAEDTAVYYCARDHASTPYYMDVWGKGTTVTVSS
VL: ETTLTQSPGTLSLSPGESATLSCRTSQRISSTYLAWYRQKPGQAPRLLMYGASSRATGIPDRFSGSGSGTDFTLTISSLEPEDFALYYCQQYGSFPWTFGQGTKVEIK
notes: full-length IgG from yeast
B3: ADI-19006 (antibody, V domains shown)
VH: EVQLVESGGGLVKPGESVKLSCAASGFTITDSYMAWIRQSPGKGLEWLAYISSTSLFTDYTDSVKGRFIITRDNAENSLYLQMTSLTPADTGVYFCARAKTSYYFYALDVWGPGTLVTVSS
VL: ETTLTQSPGTLSLSPGERATLSCRASQSVNNNYLAWFQHKPGQAPRLLIYNASNRAAGIPDRFSGSGSGTDFTLTISKLEPGDSAVYYCQRYGNSWPFGQGTKVEIK
B4: ADI-18973 (antibody, V domains shown)
VH: QVQLVQSGPALVKPTQTLTLTCTFGGFSLSRHGMRVTWIRQAPGKALEWLGHIDWDDDKFYRTSLKTRLTISKDPSNNEVVLKMTNMDHVDTATYYCALMRPFWSRDDYYYSIAVWGKGTTVTVSS
VL: DIVLTQSPGTLSLSPGDRATLSCRASQSVGSGYVTWYQQKPGQAPRLLIYGASNRAEGIPDRFSGSGSGTDFTLTISGLESEDFVIYYCQLYHRSPGSASQTVWTFGQGTKVEIK
notes: full-length IgG from yeast
B5: ADI-19003 (antibody, V domains shown)
VH: QVQLQESGPGLVKPSETLSLTCSVSGGSITNVNYYWGWIRQPPGKGLEWIGSIYYNGNTYYNPSLQSRVTMSVDTSKNHFSLRLTSVTAADTAVYFCAREGPNWELLNAFDIWGQGTTVTVSS
VL: SYELTQPPSVSVAPGQTARITCGGNNIGSKNVHWYQQKPGQAPVLVVYEDTHRPSGIPERFSGSNSGNTATLTISRVEAGDEADYYCQVWDTSSDHVVFGGGTKLTVL
B6: ADI-19009 (antibody, V domains shown)
VH: QVQLVQSGAEVKRPGSSVKVSCKASGGTFRGYHISWVRQAPGQGLEWMGGIIHLFGTVSYAPKFQGRVTITADASTGTAHMELSSLTSDDTAIYYCARDAYEVWTGSYLPPFDYWGQGTLVTVSS
VL: DIVMTQTPGTLSLSPGERVTLSCRASQTVTSSYLAWYQQKPGQAPRLLIYGAFTRATGIPDRFSGSGSGTDFTLTISRLEPEDFAVYYCQQYGSSFLTFGGGTKLEIK
B7: ADI-19005 (antibody, V domains shown)
VH: QVQLVQSGAEVKKPGASVRVSCKASGYTFTDYFMNWVRQAPGGGLEWMGWINPLSGVTKYAQQFQGSVTMTTDTSITTGYMELRSLRVDDTAVYYCASQSSPYTPGAMGVWGQGTTVTVSS
VL: DIRMTQSPSSLSASVGDRVTITCRTSQSVSGYLSWYQQKPGKAPKLLIYAASNLYSGVPSRFSGSGSGTDFTLTITSLQPEDFATYFCQLNSGALFTFGPGTKVEIK
B8: ADI-19017 (antibody, V domains shown)
VH: QVQLVQSGAEVKKPGASVRVTCKASGYTFTDYFMNWVRQAPGGGLEWMGWINPLSGVTKYAQQFQGSVTMTTDTSITTGYMELRSLRVDDTAVYYCASQSSPYTPGAMGVWGQGTTVTVSS
VL: SYELIQLPSVSVSPGQTARITCSGDALPKQYAYWYQQKPGQAPVLVIYKDSERPSGIPERFSGSSSGTTVTLTISGVQAEDEADYYCQSADSSGTYPVVFGGGTKLTVL
B9: ADI-18976 (antibody, V domains shown)
VH: EVQLVETGPGLVKPSETLSLTCTVSGDSISGYYWSWIRQSPGKGLEWIGYIYYRGSTDYNPSLKSRVTISVDTSKNQFSLKLSSVTAADTAVYYCARDNKHHDSGNYYAYFDHWGQGTLVTVSS
VL: DIVMTQSPSSLSASVGDRVTITCRASQNINTFLNWYQHKPGKAPKLLIYGASRLQSGVPSRFTGSGSGTDFTLTISSLQPEDFATYSCQQSYTTRLTFGGGTKVEIK
notes: full-length IgG from yeast
B10: ADI-19010 (antibody, V domains shown)
VH: EVQLVESGGGLVKPGGSLRLSCAASGFTFSSYSMNWVRQAPGKGLEWVSSISSSSSYIYYADSVKGRFTISRDNAKNSLYLQMNSLRAEDTAVYYCARDVQYSGYDSGYYFDYWGQGTLVTVSS
VL: QPVLTQPPSVSGAPGQRVTISCTGSSSNIGAGYDVHWYQQLPGTAPKLLIYGNSNRPSGVPDRFSGSKSGTSASLAITGLQAEDEADYYCQSYDSSLSALYVFGTGTKVTVL
B11: ADI-19016 (antibody, V domains shown)
VH: QVQLVESGGGLVKPGGSLRLSCVASGFTFSSYAMNWVRQAPGKGLDWVSSISAGSNFIDDADSVKGRFTISRDNARNSLFLQMNSLRAEDTAVYYCARIGYSSAHHYQYYMDVWGTGTTVTVSS
VL: QSVLTQPPSVSGAPGQRVTISCTGSSSNIGAGYDVHWYQDLPGTAPKLLIYGNTNRPSGVPDRFSGSKSGASASLVITGLQAEDEADYYCQSYDKSLSGGYVFGTGTKVTVL
B12: ADI-18950 (antibody, V domains shown)
VH: EVQLVESGPRLVRPSETLSLTCTVSGGFIKTSSYYWGWIRQPPGKGLEWIGSIYYAGTTYYNPSLQSRVTMSVDTSNNQFSLKLNSVTAADTAVYYCATAWTFDHWGQGTLVTVSS
VL: EIVLTQSPATLSLSPGERATLSCRASQSLSNYLAWYQQKPGQAPRLLIYDASNRATGIPARFSGSGSGTDFTLTISSLEPEDFAVYYCQLRGHWPPTITFGQGTRLEIK
notes: full-length IgG from yeast
B13: ADI-18951 (antibody, V domains shown)
VH: QVQLVQSGGGLVQPGGSLRLSCAASGFAFSDYTMSWVRQAPGKGLEWVSSVSGTGGTSYYADSVNGRFAISRENSKNTLFLQMDSLRAEDTATYYCAKDGLRDVSRVYYIDVWGKGTTVTVSS
VL: QPVLTQPASVSGSPGQSITISCTGTSRDIGSHDSVSWYQQKPGKAPKLIIYAVRNRPSGLSNRFSGSKSGNTASLTISGLQTEDEGDYYCSSYRNGNALGVFGTGTKVTVL
notes: full-length IgG from yeast
B14: ADI-18952 (antibody, V domains shown)
VH: QVQLVESGGGLVQPGGSLRLSCAASGFAFSNYAMSWVRQAPGKGLEWVSSVSGTGGTTYYADSVNGRFAISRENSRNTLYLQMDSLRVEDTATYYCAKDGLRDLSRVYYIDVWGKGATVTVSS
VL: QSVLTQPASVSGSPGQSITISCTGTSRDIGSHDYVSWYQQHPGKAPKLIIYGVNNRPSGLSNRFSGSKSGNTASLTISGLQTEDEGDYYCSSYRNGNTLGVFGTGTKLTVL
notes: full-length IgG from yeast
B15: ADI-19004 (antibody, V domains shown)
VH: QVQLVQSGAEVKKPGASVKVSCKTSGYTFSHFGVTWIRQAPGQGLEWLGWISAYNGNTDSADKLQGRLTMTTDTSTNTAYMELRSLRSDDTAVYYCARDPPASAAAMLDYWGQGTLVTVSS
VL: DIQMTQSPLSLAVTLGQPASISCRSSQGLEYTDGNTYLSWFQQRPGQSPRRLIYKVSNRDSGVPDRFSGSGAGTDFTLRISRVEAEDVGVYYCMQGTHGRGISFGPGTKVDIK
B16: ADI-19008 (antibody, V domains shown)
VH: EVQLVESGGGVVQPGRSLRLSCVASGFSFSAYGMHWVRQVPTKGLEWVAVISYDGRDIYYTDSVKGRFTISRDNSKNMLYLQMNSLRPEDRAVYYCARDPSLGYNNHYFDYWGQGTLVTVSS
VL: EIVLTQSPATLSLSPGETATLSCRASQSVTGNLAWYQQKPGQAPRLLIYAASNRATGIPARFSGSGSGTDFTLTISSLEPEDFAVYFCQQRSNWPPMYSFGQGTKLEIK
B17: ADI-19011 (antibody, V domains shown)
VH: EVQLVESGGGVVQPGGSLRLSCAGSGFAFGSFAMHWVRQAPGKGLEWVAVISFDGKNTKYADSVKGRFTTSRDNSRNTLYLQMDSLRGDDTAIYYCATIRGIVAGLCDNWGQGTLVTVSS
VL: QPVLTQSSSDSASLGASVKLTCTLSSGHRNYIIAWHQQQPGKAPRFLMKVEGSGSFTMGSGVPDRFSGSSSGADRYLTISNLQSEDEADYYCEAWDFNTGGVFGGGTQLTVL
B18: ADI-18970 (antibody, V domains shown)
VH: QVQLQESGPRLVKPSQTLSLTCTVSGGSISSGDYYWSWIRQPPGKGLEWIGYIYYSGSTHYNPSLKSRVSMSVDTAKNQFSLKLTSVTAADTAVYYCARDIGYGDHGTGSYYYGIEDWGQGTTVTVSS
VL: DIVMTQTPATLSLSPGDRATLSCRASQNIMSYLAWYQHKPGQPPRLLIYDASYRAAGIPARFSGSGSGTDFTLTISSLEPEDFAVYYCQQRTNWITFGQGTRLEIK
notes: full-length IgG from yeast; also called Antibody Number 318; Ab # 318

Columns and labels:
[1] = target: RSV F protein of subtype B (18537) on recombinant mKate-RSV virus (Respiratory syncytial virus subtype B …, UniProt P13843 26-574); test: cell-based or functional assay
[2] = target: RSV F protein of subtype A (strain A2) on recombinant mKate-RSV virus (Respiratory syncytial virus subtype A …, UniProt P03420 26-574); test: cell-based or functional assay
[3] = target: T1, RSV F subtype B, furin-cleaved ectodomain stabilized in the postfusion conformation (F ΔFP) (Respiratory syncytial virus subtype B); test: BLI, IgG on AHQ sensor, 100 nM antigen
T1 construct: extracellular domain; Trimeric soluble antigen; also called Postfusion subtype B

[4] = target: RSV F protein of subtype B (18537) on recombinant mKate-RSV (respiratory syncytial virus subtype B …, UniProt P13843 26-574); test: cell-based or functional assay
[5] = target: RSV F protein of subtype A (strain A2) on recombinant mKate-RSV (respiratory syncytial virus subtype A …, UniProt P03420 26-574); test: cell-based or functional assay
[6] = target: T2, RSV F subtype B, furin-cleaved ectodomain stabilized in the prefusion conformation (DS-Cav1) (Respiratory syncytial virus subtype B); test: BLI, IgG on AHQ sensor, 100 nM antigen
T2 construct: extracellular domain; Trimeric soluble antigen; also called Prefusion subtype B

Row | Binder | Neut IC50 (µg/ml) subtype B [1] [µg/mL] | Neut IC50 (µg/ml) subtype A [2] [µg/mL] | Kd [3] [nM] | Neut IC50 subtype B [4] [µg/mL] | Neut IC50 subtype A [5] [µg/mL] | Kd [6] [nM]
1 | B1 | > 10 | > 10 | 1.16 |  |  | 
2 | B2 | > 10 | > 10 | 1.1 |  |  | 
3 | B3 |  |  |  | 5.06 | 4.89 | 
4 | B4 | 6.27 | 9.61 | 0.394 |  |  | 2.63
5 | B5 |  |  |  | 0.125 | 0.047 | 
6 | B6 |  |  |  | 0.066 | 0.062 | 
7 | B7 |  |  |  | 0.11 | 0.041 | 
8 | B8 |  |  |  | 0.795 | 1.56 | 
9 | B9 | 10.6 | 6.29 | 0.209 |  |  | 1.24
10 | B10 |  |  |  | 0.65 | > 10 | 
11 | B11 |  |  |  | 0.092 | 0.052 | 
12 | B12 | > 10 | > 10 | 0.385 |  |  | 4.18
13 | B13 | > 10 | 3.4 | 1.13 |  |  | 5.35
14 | B14 | 2.75 | 1.59 | 0.633 |  |  | 1.01
15 | B15 |  |  |  | 0.128 | 0.02 | 
16 | B16 |  |  |  | > 10 | 8.29 | 
17 | B17 |  |  |  | 6.24 | > 10 | 
18 | B18 | 0.333 | > 10 | 0.412 |  |  | 0.445
